Reference: patent US20160362672

Assays:
[1] = molecular target: T1, soluble tissue factor (sTF), P13726
T1 chain: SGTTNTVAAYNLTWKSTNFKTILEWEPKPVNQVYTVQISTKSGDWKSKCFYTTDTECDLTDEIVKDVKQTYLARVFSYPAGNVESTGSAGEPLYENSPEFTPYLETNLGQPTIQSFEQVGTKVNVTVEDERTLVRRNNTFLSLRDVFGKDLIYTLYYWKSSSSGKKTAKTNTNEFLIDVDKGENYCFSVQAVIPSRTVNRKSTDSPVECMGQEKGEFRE

FXI protease (activated factor XI, FXIa)
Concentration by Activity (ng/ml), aPTT based factor assay (FIX-/FXI/-XTEN_AE864): 11 ng/mL | Fraction Active (FIX-/FXI/-XTEN_AE864): 40% | enhancement of clotting activity against FIX-XTEN without a cleavage site (aPTT based factor assay) (FIX-/FXI/-XTEN_AE864): In all three cases the presence of a FXI cleavage site enhanced the clotting activity by greater than 30-fold | Concentration by Activity (ng/ml), aPTT based factor assay (FIX-DFTRVVG-XTEN_AE864): 9 ng/mL | Fraction Active (FIX-DFTRVVG-XTEN_AE864): 34% | enhancement of clotting activity against FIX-XTEN without a cleavage site (aPTT based factor assay) (FIX-DFTRVVG-XTEN_AE864): In all three cases the presence of a FXI cleavage site enhanced the clotting activity by greater than 30-fold | Concentration by Activity (ng/ml), aPTT based factor assay (FIX-KLTRAET-XTEN_AE864): 7 ng/mL | Fraction Active (FIX-KLTRAET-XTEN_AE864): 30% | enhancement of clotting activity against FIX-XTEN without a cleavage site (aPTT based factor assay) (FIX-KLTRAET-XTEN_AE864): In all three cases the presence of a FXI cleavage site enhanced the clotting activity by greater than 30-fold

B1: FVIIa-AE288 (protein)
chain: AVFVTQEEAHGVLHRRRRANAFLEELRPGSLERECKEEQCSFEEAREIFKDAERTKLFWISYSDGDQCASSPCQNGGSCKDQLQSYICFCLPAFEGRNCETHKDDQLICVNENGGCEQYCSDHTGTKRSCRCHEGYSLLADGVSCTPTVEYPCGKIPILEKRNASKPQGRIVGGKVCPKGECPWQVLLLVNGAQLCGGTLINTIWVVSAAHCFDKIKNWRNLIAVLGEHDLSEHDGDEQSRRVAQVIIPSTYVPGTTNHDIALLRLHQPVVLTDHVVPLCLPERTFSERTLAFVRFSLVSGWGQLLDRGATALELMVLNVPRLMTQDCLQQSRKVGDSPNITEYMFCAGYSDGSKDSCKGDSGGPHATHYRGTWYLTGIVSWGQGCATVGHFGVYTRVSQYIEWLQKLMRSEPRPGVLLRAPFPGSPGTSESATPESGPGSEPATSGSETPGTSESATPESGPGSEPATSGSETPGTSESATPESGPGTSTEPSEGSAPGSPAGSPTSTEEGTSESATPESGPGSEPATSGSETPGTSESATPESGPGSPAGSPTSTEEGSPAGSPTSTEEGTSTEPSEGSAPGTSESATPESGPGTSESATPESGPGTSESATPESGPGSEPATSGSETPGSEPATSGSETPGSPAGSPTSTEEGTSTEPSEGSAPGTSTEPSEGSAPGSEPATSGSETPGTSESATPESGPGTSTEPSEGSAPGSSS
FVIIa activity by soluble tissue factor (sTF) induced clotting (Stago STA-Clot FVIIa activity assay kit) [1]: an activity equivalent to 112 U/ml of FVIIa activity
